Experimental data published in US12139520B2 (priority 2020, dated 2024).
Bridge positions count the residues as written; N and C are the ends. Square brackets hold non-standard residues; d marks the D form. Ends that are not written are not given here. Hyp = O=C(O)[C@@H]1C[C@@H](O)CN1; Cit = NC(=O)NCCC[C@H](N)C(=O)O

T1: hAMY3R (human, UniProt P30988)
T1 sequence 1: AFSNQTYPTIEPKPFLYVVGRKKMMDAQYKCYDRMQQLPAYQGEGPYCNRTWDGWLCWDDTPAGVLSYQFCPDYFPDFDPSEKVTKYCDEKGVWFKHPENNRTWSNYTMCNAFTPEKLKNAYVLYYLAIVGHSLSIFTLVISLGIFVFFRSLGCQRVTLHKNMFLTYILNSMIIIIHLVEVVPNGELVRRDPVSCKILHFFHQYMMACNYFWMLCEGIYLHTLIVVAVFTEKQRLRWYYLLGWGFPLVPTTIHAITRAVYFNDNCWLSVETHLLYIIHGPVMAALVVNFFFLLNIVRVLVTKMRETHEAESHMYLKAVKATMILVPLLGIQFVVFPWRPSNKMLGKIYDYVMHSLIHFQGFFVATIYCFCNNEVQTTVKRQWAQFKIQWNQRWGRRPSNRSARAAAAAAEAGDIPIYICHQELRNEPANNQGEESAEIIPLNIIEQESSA
T1 sequence 2: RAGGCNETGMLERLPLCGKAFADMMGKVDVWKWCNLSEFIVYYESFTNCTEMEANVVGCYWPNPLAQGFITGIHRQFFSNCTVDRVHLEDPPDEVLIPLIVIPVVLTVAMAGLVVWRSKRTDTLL


Target: T1, hAMY3R
Assay: cell-based or functional assay

Binder	hAMY3R EC50 (cAMP)
KCNTATCTVQRLAHQIYQFTDKDKDNVAPTNVGSNG[Hyp]-NH2 (disulfide 2-7 (inferred); ends not checked) [SEQ ID NO: 31]	0.008 nM
GCRWGTCTVQ[Cit]LAHQIYQFTDKDKDNVAPRSKISPQT[Hyp]-NH2 (disulfide 2-7 (inferred); ends not checked) [SEQ ID NO: 296]	0.392 nM
GCRFGTCTVQ[Cit]LAHQIYQFTDKDKDNVAPRSNISPQG[Hyp]-NH2 (disulfide 2-7 (inferred); ends not checked) [SEQ ID NO: 300]	0.076 nM
GCRTGTCTVQ[Cit]LAHQIYQFTDKDKDNVAPRSKVGPNG[Hyp]-NH2 (disulfide 2-7 (inferred); ends not checked) [SEQ ID NO: 290]	0.047 nM
KCNTATCTVQRLAHQIYQFTDKDKDNVPPTNVGSNG[Hyp]-NH2 (disulfide 2-7 (inferred); not fully specified; ends not checked) [SEQ ID NO: 30]	0.008 nM
GCRFGTCTVQ[Cit]LAHQIYQFTDKDKDNVAPRSKIGPQG[Hyp]-NH2 (disulfide 2-7 (inferred); ends not checked) [SEQ ID NO: 284]	0.028 nM
RCNASTCTVNWLADQITQFSNKDKAQVSPPTEVGPNS[Hyp]-NH2 (disulfide 2-7 (inferred); ends not checked) [SEQ ID NO: 307]	0.01 nM
GCRTGTCTVQ[Cit]LAHQIYQFTDKDKDNVAPRSKVGPQGY-NH2 (disulfide 2-7 (inferred); ends not checked) [SEQ ID NO: 285]	0.157 nM
KCNTATCTVQRLAHQIYQFTKDKDNVAPPTNVGSNG[Hyp]-NH2 (disulfide 2-7 (inferred); not fully specified; ends not checked) [SEQ ID NO: 29]	0.008 nM
GCRFGTCTVQ[Cit]LAHQIYQFTDKDKDNVAPRTKISPQG[Hyp]-NH2 (disulfide 2-7 (inferred); ends not checked) [SEQ ID NO: 294]	0.045 nM
GCRTGTCTVQ[Cit]LAHQIYQFTDKDKDNVAPRTNVSPNG[Hyp]-NH2 (disulfide 2-7 (inferred); ends not checked) [SEQ ID NO: 302]	0.071 nM
GCRFGTCTVQ[Cit]LAHQIYQFTDKDKDNVAPRTKVSPNG[Hyp]-NH2 (disulfide 2-7 (inferred); ends not checked) [SEQ ID NO: 288]	0.03 nM
GCRFGTCTVQ[Cit]LAHQIYQFTDKDKDNVAPRSNVSPQGY-NH2 (disulfide 2-7 (inferred); ends not checked) [SEQ ID NO: 286]	0.025 nM
KCNTSTCTVAWLADQITQFSNKDKAQVSPPTEVGPNS[Hyp]-NH2 (disulfide 2-7 (inferred); ends not checked) [SEQ ID NO: 306]	0.003 nM
GCRTGTCTVQ[Cit]LAHQIYQFTDKDKDNVAPRTKVGPQGY-NH2 (disulfide 2-7 (inferred); ends not checked) [SEQ ID NO: 298]	0.057 nM
KCNTATCTVQWLAHAIYQFTDKDKDNVAPPTNVGSNG[Hyp]-NH2 (disulfide 2-7 (inferred); ends not checked) [SEQ ID NO: 308]	0.014 nM
GCRFGTCTVQ[Cit]LAHQIYQFTDKDKDNVAPRSNVGPQG[Hyp]-NH2 (disulfide 2-7 (inferred); ends not checked) [SEQ ID NO: 289]	0.005 nM
GCRTGTCTVQ[Cit]LAHQIYQFTDKDKDNVAPRSKIGPNG[Hyp]-NH2 (disulfide 2-7 (inferred); ends not checked) [SEQ ID NO: 299]	0.11 nM
GCRFGTCTVQ[Cit]LAHQIYQFTDKDKDNVAPRSNVSPQG[Hyp]-NH2 (disulfide 2-7 (inferred); ends not checked) [SEQ ID NO: 293]	0.063 nM
GCRFGTCTVQ[Cit]LAHQIYQFTDKDKDNVAPRSKVSPQG[Hyp]-NH2 (disulfide 2-7 (inferred); ends not checked) [SEQ ID NO: 305]	0.085 nM
GCRTGTCTVQ[Cit]LAHQIYQFTDKDKDNVAPRTKVGPQG[Hyp]-NH2 (disulfide 2-7 (inferred); ends not checked) [SEQ ID NO: 292]	0.07 nM
GCRTGTCTVQ[Cit]LAHQIYQFTDKDKDNVAPRSNIGPQG[Hyp]-NH2 (disulfide 2-7 (inferred); ends not checked) [SEQ ID NO: 303]	0.103 nM
GCRIGTCTVQ[Cit]LAHQIYQFTDKFKDNVAPRSKISPQT[Hyp]-NH2 (disulfide 2-7 (inferred); ends not checked) [SEQ ID NO: 295]	0.194 nM
GCRTGTCTVQ[Cit]LAHQIYQFTDKDKDNVAPRTKIGPQG[Hyp]-NH2 (disulfide 2-7 (inferred); ends not checked) [SEQ ID NO: 301]	0.138 nM
GCRTGTCTVQ[Cit]LAHQIYQFTDKDKDNVAPRSNVSPNG[Hyp]-NH2 (disulfide 2-7 (inferred); ends not checked) [SEQ ID NO: 304]	0.139 nM
GCRTGTCTVQ[Cit]LAHQIYQFTDKDKDNVAPRSNIGPNG[Hyp]-NH2 (disulfide 2-7 (inferred); ends not checked) [SEQ ID NO: 297]	0.026 nM
GCRFGTCTVQ[Cit]LAHQIYQFTDKDKDNVAPRTKVSPQG[Hyp]-NH2 (disulfide 2-7 (inferred); ends not checked) [SEQ ID NO: 287]	0.055 nM
KCNTATCTVQWLAHQIAQFTDKDKDNVAPPTNVGSNG[Hyp]-NH2 (disulfide 2-7 (inferred); ends not checked) [SEQ ID NO: 309]	0.025 nM
GCRFGTCTVQ[Cit]LAHQIYQFTDKDKDNVAPRTNISPQG[Hyp]-NH2 (disulfide 2-7 (inferred); ends not checked) [SEQ ID NO: 291]	0.064 nM

Target: hAM1R (human, UniProt Q16602)
Assay: cell-based or functional assay

Binder	hAM1R EC50 (cAMP)
KCNTATCTVQRLAHQIYQFTDKDKDNVAPTNVGSNG[Hyp]-NH2 (disulfide 2-7 (inferred); ends not checked) [SEQ ID NO: 31]	> 5000 nM
GCRWGTCTVQ[Cit]LAHQIYQFTDKDKDNVAPRSKISPQT[Hyp]-NH2 (disulfide 2-7 (inferred); ends not checked) [SEQ ID NO: 296]	> 5000 nM
GCRFGTCTVQ[Cit]LAHQIYQFTDKDKDNVAPRSNISPQG[Hyp]-NH2 (disulfide 2-7 (inferred); ends not checked) [SEQ ID NO: 300]	> 5000 nM
GCRTGTCTVQ[Cit]LAHQIYQFTDKDKDNVAPRSKVGPNG[Hyp]-NH2 (disulfide 2-7 (inferred); ends not checked) [SEQ ID NO: 290]	> 5000 nM
KCNTATCTVQRLAHQIYQFTDKDKDNVPPTNVGSNG[Hyp]-NH2 (disulfide 2-7 (inferred); not fully specified; ends not checked) [SEQ ID NO: 30]	> 5000 nM
GCRFGTCTVQ[Cit]LAHQIYQFTDKDKDNVAPRSKIGPQG[Hyp]-NH2 (disulfide 2-7 (inferred); ends not checked) [SEQ ID NO: 284]	591 nM
RCNASTCTVNWLADQITQFSNKDKAQVSPPTEVGPNS[Hyp]-NH2 (disulfide 2-7 (inferred); ends not checked) [SEQ ID NO: 307]	> 5000 nM
GCRTGTCTVQ[Cit]LAHQIYQFTDKDKDNVAPRSKVGPQGY-NH2 (disulfide 2-7 (inferred); ends not checked) [SEQ ID NO: 285]	> 5000 nM
KCNTATCTVQRLAHQIYQFTKDKDNVAPPTNVGSNG[Hyp]-NH2 (disulfide 2-7 (inferred); not fully specified; ends not checked) [SEQ ID NO: 29]	> 5000 nM
GCRFGTCTVQ[Cit]LAHQIYQFTDKDKDNVAPRTKISPQG[Hyp]-NH2 (disulfide 2-7 (inferred); ends not checked) [SEQ ID NO: 294]	> 5000 nM
GCRTGTCTVQ[Cit]LAHQIYQFTDKDKDNVAPRTNVSPNG[Hyp]-NH2 (disulfide 2-7 (inferred); ends not checked) [SEQ ID NO: 302]	4330 nM
GCRFGTCTVQ[Cit]LAHQIYQFTDKDKDNVAPRTKVSPNG[Hyp]-NH2 (disulfide 2-7 (inferred); ends not checked) [SEQ ID NO: 288]	> 5000 nM
GCRFGTCTVQ[Cit]LAHQIYQFTDKDKDNVAPRSNVSPQGY-NH2 (disulfide 2-7 (inferred); ends not checked) [SEQ ID NO: 286]	139 nM
KCNTSTCTVAWLADQITQFSNKDKAQVSPPTEVGPNS[Hyp]-NH2 (disulfide 2-7 (inferred); ends not checked) [SEQ ID NO: 306]	> 5000 nM
GCRTGTCTVQ[Cit]LAHQIYQFTDKDKDNVAPRTKVGPQGY-NH2 (disulfide 2-7 (inferred); ends not checked) [SEQ ID NO: 298]	> 5000 nM
KCNTATCTVQWLAHAIYQFTDKDKDNVAPPTNVGSNG[Hyp]-NH2 (disulfide 2-7 (inferred); ends not checked) [SEQ ID NO: 308]	> 5000 nM
GCRFGTCTVQ[Cit]LAHQIYQFTDKDKDNVAPRSNVGPQG[Hyp]-NH2 (disulfide 2-7 (inferred); ends not checked) [SEQ ID NO: 289]	3500 nM
GCRTGTCTVQ[Cit]LAHQIYQFTDKDKDNVAPRSKIGPNG[Hyp]-NH2 (disulfide 2-7 (inferred); ends not checked) [SEQ ID NO: 299]	> 5000 nM
GCRFGTCTVQ[Cit]LAHQIYQFTDKDKDNVAPRSNVSPQG[Hyp]-NH2 (disulfide 2-7 (inferred); ends not checked) [SEQ ID NO: 293]	> 5000 nM
GCRFGTCTVQ[Cit]LAHQIYQFTDKDKDNVAPRSKVSPQG[Hyp]-NH2 (disulfide 2-7 (inferred); ends not checked) [SEQ ID NO: 305]	> 5000 nM
GCRTGTCTVQ[Cit]LAHQIYQFTDKDKDNVAPRTKVGPQG[Hyp]-NH2 (disulfide 2-7 (inferred); ends not checked) [SEQ ID NO: 292]	> 5000 nM
GCRTGTCTVQ[Cit]LAHQIYQFTDKDKDNVAPRSNIGPQG[Hyp]-NH2 (disulfide 2-7 (inferred); ends not checked) [SEQ ID NO: 303]	> 5000 nM
GCRIGTCTVQ[Cit]LAHQIYQFTDKFKDNVAPRSKISPQT[Hyp]-NH2 (disulfide 2-7 (inferred); ends not checked) [SEQ ID NO: 295]	> 5000 nM
GCRTGTCTVQ[Cit]LAHQIYQFTDKDKDNVAPRTKIGPQG[Hyp]-NH2 (disulfide 2-7 (inferred); ends not checked) [SEQ ID NO: 301]	> 5000 nM
GCRTGTCTVQ[Cit]LAHQIYQFTDKDKDNVAPRSNVSPNG[Hyp]-NH2 (disulfide 2-7 (inferred); ends not checked) [SEQ ID NO: 304]	> 5000 nM
GCRTGTCTVQ[Cit]LAHQIYQFTDKDKDNVAPRSNIGPNG[Hyp]-NH2 (disulfide 2-7 (inferred); ends not checked) [SEQ ID NO: 297]	> 5000 nM
GCRFGTCTVQ[Cit]LAHQIYQFTDKDKDNVAPRTKVSPQG[Hyp]-NH2 (disulfide 2-7 (inferred); ends not checked) [SEQ ID NO: 287]	> 5000 nM
KCNTATCTVQWLAHQIAQFTDKDKDNVAPPTNVGSNG[Hyp]-NH2 (disulfide 2-7 (inferred); ends not checked) [SEQ ID NO: 309]	> 5000 nM
GCRFGTCTVQ[Cit]LAHQIYQFTDKDKDNVAPRTNISPQG[Hyp]-NH2 (disulfide 2-7 (inferred); ends not checked) [SEQ ID NO: 291]	> 5000 nM
